How the values were obtained:
cleaved-HcTyr1 = molecular target: T1, cleaved-HcTyr1 (Hahella sp. CCB-MM4, UniProt A0A261GRE4); assay: MBTH o-quinone trapping, absorbance at […] nm, Michaelis-Menten fit; type: biochemical; settings: 50 mM potassium phosphate pH 7.0, 25 °C, 5 mM MBTH, 2% N,N'-dimethylformamide, Cu(II) 2:1; LID self-cleaved form; diphenolase
T1 construct: gene BTA51_09820; TYR domain after self-cleavage of the C-terminal LID domain during storage (over 2 months, 4 °C); used without further purification; expressed in E. coli BL21(DE3) with C-terminal His tag; Cu(II) added 2:1

purified protein [1] = substrate: N[C@@H](Cc1ccc(O)c(O)c1)C(=O)O; assay: purified protein; type: biochemical, Hahella sp. CCB-MM4; settings: 5 mM MBTH, 2% N,N'-dimethylformamide
purified protein [2] = substrate: N[C@@H](Cc1ccc(O)cc1)C(=O)O; assay: purified protein; type: biochemical, Hahella sp. CCB-MM4; settings: 5 mM MBTH, 2% N,N'-dimethylformamide
[3] = 50 mM potassium phosphate pH 7.0, 25 °C, Cu(II) 2:1, latent form, diphenolase
[4] = 50 mM potassium phosphate pH 7.0, 25 °C, Cu(II) 2:1, latent form, monophenolase
[5] = 50 mM sodium citrate pH 5.5, 25 °C, Cu(II) 2:1, diphenolase
[6] = 50 mM sodium citrate pH 5.5, 25 °C, Cu(II) 2:1, monophenolase

`N[C@@H](Cc1ccc(O)c(O)c1)C(=O)O` [L-DOPA] showed a Km (cleaved-HcTyr1) of 347 ± 7 µM.

B1: HcTyr1 (latent-HcTyr1) (Hahella sp. CCB-MM4) (protein)
chain: MKTRQNVYELKDDTLSWYSRAVEEMKSRDINDPTSWWYQGAIHGYATYPSALTYWHDATGYPPSQQTVNSGFWNRCQHGTWYFLPWHRMYLFYFEEIVAKAIRDMGGPADWTLPYWNYCEAYNTSASPSNQQQALQIPPEFGSSQGPNADFASLWIKNRRNYVLNKNNVNPWPAMNEAEFTNSGGDISFGGGVTGFAHSGGQTGQLESLPHNVVHTDINGAMGNPDTAALDPIFWLHHANIDRLWQVWLAQAGRSNPVVNAWKDFRFKFHDANGQPVEIAVKDVETTQLLGYVYTPAFPLSSTTPARRSVPAMDVVGATSASFSVGDHMAPLDLTMVPQPARGARLLAARGGDEKRTILRISNVKGKGATSPIDLFITNRDNEEGNEENFVGCIGLFGLENASTPSVESDGSGLNFAIDISDTINKLRQRDDWDEDNIRVQLIPQSKQDSDVEINVGRVSLHSEID
notes: full length 466 aa with LID domain (latent), C-terminal His tag (pET22b), E. coli BL21(DE3), about 52 kDa, monomer; Cu(II) added 2:1
In the case of B1, the Km (purified protein [1]; [3]) is reported as 0.370 ± 0.005 mM, the kcat (purified protein [1]; [3]) is reported as 1.00 ± 0.0 s⁻¹ and the Km (purified protein [2]; [4]) is reported as 0.187 ± 0.035 mM. It also gave a kcat (purified protein [2]; [4]) of 0.71 ± 0.03 s⁻¹.

B2: HcTyr2 (Hahella sp. CCB-MM4) (protein)
chain: MGDSSELNVRRSVRDLQAEYDRGNRKPLEDLIRAWKGIQELPPDDKRSFFILGGYHGEPFDYRNAVDALPPDDIYTYWGGWCNHGNVLFPTWHRIYILKLEEALQSIVPGVTLPFWDETSEETVKKGIPDVLTREYFELDGENIKNPLYSYTLPLSLSDNVPGDNKAYEKPAGYETVRYPLSGLVGTPEARAATAKHNAKYPNPIENTQLLNKNIIAWLHGSGKDEEGPTTTDPNPKGRGVKWMYEKCLSAPNYTVFSNTTSAGQWNLDHPAKSVVALEQPHNDVHLAVGGFDIPGQGESGQVADANGDMGENNTAALDPIFFFHHCNVDRMFWLWQKQNGFINKLEVITGYYGTNSSDSQGPTPGIPPGTPLDLNTPLNPFIKDEFGNPFTSMDCINIEEQLGYTYGPGSLDEVPKPEPITGGSTKKLTVRGINRGLFDGSFVIRAYASVPDAQGQLTEYYLGDHAVLSRRNVVKCANCLTHLEVIAHFPLDTLSADLVDKAEYWITIQHRGHSKRMKVDKDTGQSEKALLAQRAELPEKLKYSISVTD
notes: full length 550 aa with LID domain attached, C-terminal His tag (pET22b), E. coli BL21(DE3), about 61 kDa; Cu(II) added 2:1
B2 was tested, and the Km (purified protein [1]; [5]) was 0.196 ± 0.006 mM, the kcat (purified protein [1]; [5]) was 9.94 ± 0.0 s⁻¹ and the Km (purified protein [2]; [6]) was 0.160 ± 0.005 mM. It also gave a kcat (purified protein [2]; [6]) of 6.12 s⁻¹.
